Assay: soluble fraction after stress (log2 fold change); higher = more stays soluble; pooled small domains, quantitative proteomics
Conditions: stress: 75 degC
For “HMREKPRETFQRIAEKVGQTLRKGPVRVQQMDLLFSESREQVMEVLRAMAESGEIRIQDDTLHWNGHT”, the “soluble fraction (log2)” value was 0.173.
For “HMRELPKRPEIRYAAGDRVFHKAFGNGLVKQVAQTAGGARVTVDFGEGKGVKTFAGDAPMIKI”, the “soluble fraction (log2)” value was 0.391.
For “HMRELSDFEKLLFTTTLERKMINLAMLLTRSNKADSKDLIQDSYLKAIENQVQFNGNNIDAWVITILKNTF”, the “soluble fraction (log2)” value was -0.352.
With “HMRENAARNRNVNLDIGETLRVDAWSPERRARVQYRGAAWDVELAPNAPATVGEFRIVEVRGNVLVVTP” the “soluble fraction (log2)” value was -0.604.
With “HMREPIPVPSRPIRAGDLVEIPGTNRPAEVTAVKGDRLVLKAGVLSMTVKNDEVRLIEDDERAAM” the “soluble fraction (log2)” value was 0.505.
With “HMREQAHEVAGKLGYPVMVKASAGGGGKGIRIVRTEDELDQAFEAAQSETKAAFGDDQMYMEKVI” the “soluble fraction (log2)” value was -0.0878.
With “HMRESDQSTVELSLERTIQEALMVNPRTSSVEEFSFEWGTGRVKVSFIVYSVDGEPFTVDSIIE” the “soluble fraction (log2)” value was -2.45.
For “HMREVEAPRDLLAALGERPGALDAWKALSFTHQREYVEAIEDARKPETRERRIANAVKMVAERS”, the “soluble fraction (log2)” value was 0.386.
For “HMREVPHGEYEVKIEKLELVESKAGDPMVTVWFKVLAGDYKGSMIFMNQVITKGFQIHIMNEFLR”, the “soluble fraction (log2)” value was -0.308.
In the case of “HMREYEKAVDYVRRMISSGSLNVGDRLPTERELSLELDISRNSTREAMRMLENMGIIVSRHGSGNYISGN”, the “soluble fraction (log2)” value is reported as -0.682.
For “HMRFDADELQKAYDLFDADENTPFKTIKQAYYALARRHHPDKNGDQEYFKVINNAFQLIQEHRRRRDN”, the “soluble fraction (log2)” value was -0.437.
For “HMRFGNHHVYRTLMVLSDQKRKGRKQIADAVGIGEGSMRTIIEYLRGLDMIDIRQTGVKITRHGNAFL”, the “soluble fraction (log2)” value was -0.115.
With “HMRGAARRDRAVGERAVSKDTILDATRALLRKGSALEIRAIDIAEESGLSRQTVFQYYPVIRLIFFELSD” the “soluble fraction (log2)” value was -0.00574.
With “HMRGETSYANDIIKRLKQANLIVVEGTLYPLLNRLKKDGLLHYEWRESQQGPPRKYYGLTEEGEA” the “soluble fraction (log2)” value was -0.273.
In the case of “HMRGFGEVGQLPSGRYRARYTGPDGGRHSAPITFVARIDAEGWLVDQERMISRGEWEPPARQ”, the “soluble fraction (log2)” value is reported as -0.238.
For “HMRGFGYVRRLPSKRYQASYAGPDLQRHVAPTTFTTKADAESWLGAERKVVESGSWRPPAVREAEARLS”, the “soluble fraction (log2)” value was 0.462.
For “HMRGLIEPLSQRELEVLMLMARGQSNAHIADQLNISENTIKWHGRNIFGKLGVSNRTEAVITSQEMGMLAT”, the “soluble fraction (log2)” value was -0.727.
With “HMRGRFGNAAPARNLGDHPQGGAINVKAGRYGPYVSWGKVNATLPKDSDPEKVTLEEAVALIAAKQSGQG” the “soluble fraction (log2)” value was -0.111.
For “HMRGVDRPLTLPRHWRRNAGRLVKVTLANGSAVTGRVLDPGEERVTLEVSGERHEVAYADVKKALVQVEF”, the “soluble fraction (log2)” value was -2.07.
With “HMRHLSVPNRQVEGALDHIRSQGWLAEGMRVFASEDGSARLIPLGPGAPLEMLEPLAKFDVISHEGKPY” the “soluble fraction (log2)” value was -0.149.
In the case of “HMRHSLAAALTELRRLAALDLGDFFRFEYVSHTDSLGGKQQAYTEGIRVSFGVYLGVNKKDRLNVDPVV”, the “soluble fraction (log2)” value is reported as -3.42.
For “HMRHTRQRQAVLDALVRSGQALSPQDLLGQAKSAVPSLNLSTVYRQIKGLQDAGQIVRVELPGQPPRFEM”, the “soluble fraction (log2)” value was -0.0693.
In the case of “HMRIAQYRQIENDLLEQINLGYYKKGDLIPTELELSATYHVSRVTVRKATDNLVAKGILQRVAGVGTFVSR”, the “soluble fraction (log2)” value is reported as -3.14.
With “HMRIATVTPIEEDQASDRVVAVYNDIKSTKQIDFIPNFWKVIAVNPDLLEQVWGQLKTLMHPEEVG” the “soluble fraction (log2)” value was -0.996.
In the case of “HMRIEDTMDYINKIKEKLKNNGGVITSKEFTRSNIPTIYLTRMVETGELIRIDRGIYINSSG”, the “soluble fraction (log2)” value is reported as -0.781.
With “HMRIEYYDDEELDRYIGTPASGYREAAVEEFREILLTLDADDVPGWVRSLQLRGIEFPESLRPELYL” the “soluble fraction (log2)” value was -0.568.
With “HMRIFDDNMIFPTEAEISAALKRLVMDLPKVGFLQGHGERAVDNVGERAYSMFTHANNFRYALINQGFVT” the “soluble fraction (log2)” value was -0.029.
In the case of “HMRIHKQLGDRIRNLRLSSGMNQEELAFKSGISAAHLGQIERGLKSPTISTIQKIAKALNVTLPILF”, the “soluble fraction (log2)” value is reported as -0.631.
In the case of “HMRININNASARQIADALPGVGLKTARDIKDFQTTLSGERYTRLDQLHSIKRVDWDEIFKADLVRV”, the “soluble fraction (log2)” value is reported as -0.0802.
For “HMRISMRDQVYEIIKNRILSREYSLGEPINIVHLSKELGISNTPIREALSQLETERLITINSNQKYHVT”, the “soluble fraction (log2)” value was -0.0513.
For “HMRKDEFLQTLRRALNGNVPPRVVEENVRYYDGYISDEVRKGRSEEEVIEEIGDPRLIARTIEDTT”, the “soluble fraction (log2)” value was 0.105.
In the case of “HMRKDRKVLMERGRHIFNDLLEKEGIVATNQLMTKLLASHHLRNRDELYLMLANDDISLSSKEIKDLS”, the “soluble fraction (log2)” value is reported as -0.409.
In the case of “HMRKEDYLPIGSVINMDDRKFRVDSVDFDKDKVSLQDMALADARMPIFWEEPLTVVRELYEQQDE”, the “soluble fraction (log2)” value is reported as 0.135.
In the case of “HMRKEPSYASDIITRLKEADLIVVEGTLYPLLTRLKKDGLLSYEWRESTQGPPRKYYALTLDGET”, the “soluble fraction (log2)” value is reported as -0.47.
With “HMRKIGDVLRLHAGGLSKRRIAVSLNIGRTAVGDYISRARRAGLGWPLPEDLSEEALERLLFPPP” the “soluble fraction (log2)” value was -3.08.
With “HMRKIVEGVLTKKEGKWYLLTDIETYKISDASAEYHKAELNDRASALIPAQNPKVPFASLEKVFN” the “soluble fraction (log2)” value was -1.01.
With “HMRKLHFVMSEIYEDHPWIGSKLQDVFLPKDIRVVLVERDSKQFMPNGQTLFELGDRLTLSALHYDPA” the “soluble fraction (log2)” value was -2.8.
In the case of “HMRKLTDRQRQILDLIKTIIAETGAPPTRAEISTALGFKSANAAQEHLQALAQKGMIDLVSGASRGIRLRG”, the “soluble fraction (log2)” value is reported as -0.99.
For “HMRKMELTEAAEKLIEEPDVVSAYRNMQQIFQQWREIGPVPREQRDEVWSHFKDLMTQVNRRHQAHFEN”, the “soluble fraction (log2)” value was 0.113.
In the case of “HMRKPLDQSWVPDDDAMKILTNSGIEKEFIKNEIPEFILYWSDKGEISDSWNTKFISQIRRQWAKNQ”, the “soluble fraction (log2)” value is reported as -0.0241.
With “HMRKSAVSSTLTSIEGIGATRAKALLKHFKTVAAVSEADLKELEDAPGMTRPSALRVYEYFHGK” the “soluble fraction (log2)” value was -0.342.
In the case of “HMRKSLGEIVFDRMERAIKSGAYSPDERLPTELDLAAEFEVSRPVIRDALKRLRERGLIYSRQGAGSFVRA”, the “soluble fraction (log2)” value is reported as -0.813.
With “HMRKTIQDFLSSNKVDIAKLLTLALEKTKEDLYKNLSYNLTNKELEKLKLLIKKREQGIPFAYLS” the “soluble fraction (log2)” value was -0.348.
For “HMRLADHVVEKLLALVQERGLQPGQKLPAERQLAEVLGVSRTSVREAIQKLVSQGVLSARRGDGTYVQS”, the “soluble fraction (log2)” value was -0.302.
For “HMRLANGIGTVYKLSGNRRNPYIVRKTTGWEIDEESGKAKQKYITIGYAPTRAKGLEMLMDYNKNP”, the “soluble fraction (log2)” value was -0.895.
In the case of “HMRLDHIFSVVERLKGVSLGAGDRLEVQKYEDLLTVYKSKNALSSEEAQTLNDILASLLKMMAKYD”, the “soluble fraction (log2)” value is reported as -1.05.
With “HMRLDSELVSARLHRFMGTNRKPDGEIVEKIAAILEGHPIETLDAFLQSLNGRKIKSYGFFPTVLRREIAN” the “soluble fraction (log2)” value was -0.319.
For “HMRLEEVSVPQRLLAAIAEEREVQIGIVDGRGGTRVLRVEPLALEGGRLRARDVESGEEFTVLIHRVLL”, the “soluble fraction (log2)” value was -1.19.
For “HMRLLAESIARGLDPEGSGGLWAKEAGAEALKLMETLAAEAPHGGSFTAAAYRDLFESLVHQGEVREA”, the “soluble fraction (log2)” value was -0.00417.
For “HMRLLGEPLAGRLKKDVPVVTGRSTESKAIAQFFELRWSHLPDPEARTISVASGRIDFMDVGATRFSLR”, the “soluble fraction (log2)” value was 0.0725.
For “HMRLSDSEFESIENAIKEKLENSALTADVLVKELSFDEDKIWKVIRWLEDAEKISEDEAGTLLWKPR”, the “soluble fraction (log2)” value was -0.0971.
In the case of “HMRLSESLLDDIPGIGAARKRALLQSFGSVRKLRHADAEEIAAKVPGIGLNFAEKIVEALRKK”, the “soluble fraction (log2)” value is reported as 0.391.
For “HMRLTTTPKTARGLTTMNRIIRAAEVEFGRKGYHYTGITDIAQRAKVASGTIYLYFTDKYSLYVHLLT”, the “soluble fraction (log2)” value was 0.159.
For “HMRLYTQDVAVLNRDVIQGEVITSDMVTTVNVHKRTVPTGALNLSEIPGNVAKFNIPASIPITASMVTK”, the “soluble fraction (log2)” value was -0.0186.
For “HMRMLLKELLIQYEVKNDKSHVEVAKEVGVSLSTYYRWLNGESLHLKKRTIDRLSEVLHYDINQVVEES”, the “soluble fraction (log2)” value was -2.52.
In the case of “HMRMLSEGAQRMLRGLAVLEEASADRLLELHQGDYPGFVRSLFALESAGLFQRNGSGTWIRR”, the “soluble fraction (log2)” value is reported as -0.91.
With “HMRMNASERQNQIVDLLSQNGVMKIMDIADHFNVSRETIRRDLIILEDDNRIKKWFGGVISAN” the “soluble fraction (log2)” value was -0.706.
With “HMRMQRYYLTDMSEKGREALPGVLDEMGYAGRYTMSDNSIAINSNMIVLSKAIKRAEDIAHNE” the “soluble fraction (log2)” value was -0.089.
With “HMRMRPNERQKRIIELLSFRRHETIGNFANEFGVSRDTIKRDIITLQEEYPIISERGYEGGISLPDGYYI” the “soluble fraction (log2)” value was -1.08.
In the case of “HMRMSLDEAKAVVLPIGEYKGRNMGEVLAIKPELIDFYASQKFNSSKYPYLKEAAQVILENQ”, the “soluble fraction (log2)” value is reported as 0.114.
For “HMRMSPRERKIYQFIENHPGTKSGEMAEKLGIPLPTIKRLLSDMVASKLLQKHGTGAGTNYSIEE”, the “soluble fraction (log2)” value was 0.43.
With “HMRMSQLSRLISILTLLKSKRLLTATELAEKYDVSIRTVYRDIRKLEEAGIPVYTIEGRGYSLMDNYT” the “soluble fraction (log2)” value was -1.42.
In the case of “HMRNANENTLKDLPVAVPNIHVSNIEEKKDFHLIQLEYSQEFDPREDLFNFAVNSSWVILKMTPT”, the “soluble fraction (log2)” value is reported as 0.215.
With “HMRNDIFDQLTEREMQILQEVAKGYRNKQIADHLFISESTVKVHMKSLLKKLQVPSRTAATVLYLERYG” the “soluble fraction (log2)” value was -1.55.
For “HMRNEFEAHSDGTRIQLNDRSKATFSVYDVQGRLIHSFQDFSGSSFNIEPKNQLLIITRETAEGVSVKKLV”, the “soluble fraction (log2)” value was 0.34.
In the case of “HMRNKTVKEVLDYIEKNSEFIFFYYSKAIDTKRIVSLSVKDQPITVILDQLFKNTDVLYEIKDRQISLKRE”, the “soluble fraction (log2)” value is reported as 0.1.
For “HMRNTETMKEIQAFVEDYFFEYHQSPSMQKVADAIGTSKSTAYYYVMEMARNGMLHYDGKTIETPHTQKS”, the “soluble fraction (log2)” value was -0.82.
For “HMRPDDPYLVIGASREMGDEELKRHYRRLVAETHPDRGIARGLPAEAIAIATRRLAAINAAWDAIERERGL”, the “soluble fraction (log2)” value was 0.000257.
In the case of “HMRPDSFEAGEAEAGSRLDRLLAARLGIPRNQVQQWIGGGRVTVDAEPVRASLVVRAGMRIAWDPPPPP”, the “soluble fraction (log2)” value is reported as -1.56.
For “HMRPEKLVLKALRGAHGPLSAEEVAGRIEADGGAGLDVARVEHVLGQLERSGTVAALGGGKYLALR”, the “soluble fraction (log2)” value was 0.692.

From the domain aggregation screens of Martell et al. (2025)
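Further: 20 min heating vs room temperature control held 20 min.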
